# Test results published in PMC6555819, “Comprehensive study of nuclear receptor DNA binding provides a revised framework for understanding receptor specificity”.
# Legend:
# Experiment in all cases: no ligand; PBM; 270 nM : 90 nM RXRa; PBS pH 7.4, 2% milk, 0.02% Triton X-100, 1 mM DTT, BSA, 0.4 mg/ml salmon testes DNA
# LXRa:RXRa = LXRa:RXRa (Homo sapiens, UniProt Q13133;P19793 full;full); conditions: tags: His kept;His cleaved; copies: 1;1; label: surface-attached array probe
# Method in brief: (§1)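 Each nuclear receptor dimer, without ligand, was incubated for 1 h on custom Agilent 4×180K protein-binding microarrays. Binding was detected with antibodies against each partner (one per run), and scanned fluorescence was regression-normalized. The binding z-scores are referenced to random human genomic background probes.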
# PPARa:RXRa = PPARa:RXRa (Homo sapiens, UniProt Q07869;P19793 full;full); conditions: tags: GST kept;His cleaved; copies: 1;1; label: surface-attached array probe
# PPARa:RXRa, sequence (Q07869 whole entry, chain 1 of 2): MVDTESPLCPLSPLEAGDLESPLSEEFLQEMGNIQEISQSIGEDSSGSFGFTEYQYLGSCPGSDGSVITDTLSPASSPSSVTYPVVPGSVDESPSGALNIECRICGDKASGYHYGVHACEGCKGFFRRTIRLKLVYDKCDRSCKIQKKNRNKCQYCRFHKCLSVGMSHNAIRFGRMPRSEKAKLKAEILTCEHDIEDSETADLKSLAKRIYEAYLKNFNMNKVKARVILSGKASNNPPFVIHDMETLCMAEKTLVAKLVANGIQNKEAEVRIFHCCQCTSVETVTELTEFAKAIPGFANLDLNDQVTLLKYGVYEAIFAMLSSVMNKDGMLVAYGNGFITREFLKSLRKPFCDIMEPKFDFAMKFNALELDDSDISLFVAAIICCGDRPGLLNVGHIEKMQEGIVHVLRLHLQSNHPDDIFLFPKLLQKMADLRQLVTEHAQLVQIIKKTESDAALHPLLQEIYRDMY
# PPARa:RXRa, sequence (P19793 whole entry, chain 2 of 2): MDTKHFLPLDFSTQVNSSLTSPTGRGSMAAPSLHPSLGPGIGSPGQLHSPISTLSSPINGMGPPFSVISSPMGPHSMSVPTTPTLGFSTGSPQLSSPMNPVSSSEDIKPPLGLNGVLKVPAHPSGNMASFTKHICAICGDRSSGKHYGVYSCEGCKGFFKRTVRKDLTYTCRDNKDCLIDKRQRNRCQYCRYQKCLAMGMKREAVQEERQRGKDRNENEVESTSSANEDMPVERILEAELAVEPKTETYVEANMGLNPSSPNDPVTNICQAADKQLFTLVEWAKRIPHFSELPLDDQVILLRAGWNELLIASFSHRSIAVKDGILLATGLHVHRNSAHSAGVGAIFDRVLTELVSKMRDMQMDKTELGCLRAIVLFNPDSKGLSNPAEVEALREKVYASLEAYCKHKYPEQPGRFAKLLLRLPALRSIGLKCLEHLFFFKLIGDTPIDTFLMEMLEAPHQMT
# Method in brief: as §1
# RARg:RXRa = RARg:RXRa (Homo sapiens, UniProt P13631;P19793 full;full); conditions: tags: His kept;His cleaved; copies: 1;1; label: surface-attached array probe
# RARg:RXRa, sequence (P13631 whole entry, chain 1 of 2): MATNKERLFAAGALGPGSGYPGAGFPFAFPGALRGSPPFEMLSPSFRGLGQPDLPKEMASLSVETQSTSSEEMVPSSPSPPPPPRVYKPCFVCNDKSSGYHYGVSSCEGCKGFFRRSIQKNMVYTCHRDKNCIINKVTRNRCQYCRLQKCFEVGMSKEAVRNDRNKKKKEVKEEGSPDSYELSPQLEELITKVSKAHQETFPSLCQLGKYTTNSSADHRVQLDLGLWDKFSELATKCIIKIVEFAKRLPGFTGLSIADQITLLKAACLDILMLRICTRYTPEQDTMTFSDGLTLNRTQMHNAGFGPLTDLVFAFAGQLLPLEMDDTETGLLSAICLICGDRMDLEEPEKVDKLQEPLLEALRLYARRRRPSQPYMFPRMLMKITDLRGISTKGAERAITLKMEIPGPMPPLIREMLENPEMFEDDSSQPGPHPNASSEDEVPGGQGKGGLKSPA
# RARg:RXRa, sequence (P19793 whole entry, chain 2 of 2): as the sequence (P19793 whole entry, chain 2 of 2) above
# Method in brief: as §1
# FXR:RXRa = FXR:RXRa (Homo sapiens, UniProt Q96RI1;P19793 full;full); conditions: tags: His kept;His cleaved; copies: 1;1; label: surface-attached array probe
# FXR:RXRa, sequence (Q96RI1 whole entry, chain 1 of 2): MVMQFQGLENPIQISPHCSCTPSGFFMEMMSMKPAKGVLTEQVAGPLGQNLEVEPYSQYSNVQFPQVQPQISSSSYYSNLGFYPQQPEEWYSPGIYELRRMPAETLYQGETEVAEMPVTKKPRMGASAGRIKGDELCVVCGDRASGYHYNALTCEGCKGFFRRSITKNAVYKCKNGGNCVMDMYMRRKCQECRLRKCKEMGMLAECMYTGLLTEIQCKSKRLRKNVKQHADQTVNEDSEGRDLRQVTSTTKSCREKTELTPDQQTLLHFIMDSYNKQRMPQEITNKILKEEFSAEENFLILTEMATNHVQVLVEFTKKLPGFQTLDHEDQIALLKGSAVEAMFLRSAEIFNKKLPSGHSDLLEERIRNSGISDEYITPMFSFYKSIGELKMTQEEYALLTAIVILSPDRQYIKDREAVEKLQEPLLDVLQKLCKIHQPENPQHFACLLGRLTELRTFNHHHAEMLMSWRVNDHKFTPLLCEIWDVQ
# FXR:RXRa, sequence (P19793 whole entry, chain 2 of 2): as the sequence (P19793 whole entry, chain 2 of 2) above
# Method in brief: as §1
# LXRa:RXRa, sequence (Q13133 whole entry, chain 1 of 2): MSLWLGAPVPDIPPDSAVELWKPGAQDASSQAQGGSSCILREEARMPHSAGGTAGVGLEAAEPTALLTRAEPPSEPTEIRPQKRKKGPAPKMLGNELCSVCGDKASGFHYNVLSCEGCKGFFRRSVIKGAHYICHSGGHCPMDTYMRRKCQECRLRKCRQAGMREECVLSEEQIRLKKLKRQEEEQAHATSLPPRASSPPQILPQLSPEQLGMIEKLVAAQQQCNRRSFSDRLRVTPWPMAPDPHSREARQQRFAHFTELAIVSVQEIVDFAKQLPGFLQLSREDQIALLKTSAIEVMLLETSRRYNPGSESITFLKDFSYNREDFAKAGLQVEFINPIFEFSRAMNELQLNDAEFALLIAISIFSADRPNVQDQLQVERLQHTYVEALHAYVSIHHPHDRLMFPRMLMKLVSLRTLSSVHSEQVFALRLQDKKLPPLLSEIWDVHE
# LXRa:RXRa, sequence (P19793 whole entry, chain 2 of 2): as the sequence (P19793 whole entry, chain 2 of 2) above
Binder,binding signal (LXRa:RXRa),other results
NRC3_wobSeed116_DR4_G11A_o1 (dsDNA) DNA 1: GCAGAATGAGATTACCAAAGATCAGGGAAACGCTTGGCGATTGACAGCGTAGAATGAAGG DNA 2: CCTTCATTCTACGCTGTCAATCGCCAAGCGTTTCCCTGATCTTTGGTAATCTCATTCTGC,-0.15 PBM z-score against 500 random probes,–
NRC3_random_hg19_234_o1 (dsDNA) DNA 1: GCTAACTGGCACCTTTGGGAACTACATGTTTCCTGTGCGATTGACAGCGTAGAATGAAGG DNA 2: CCTTCATTCTACGCTGTCAATCGCACAGGAAACATGTAGTTCCCAAAGGTGCCAGTTAGC,-0.32 PBM z-score against 500 random probes,–
NRC3_wobSeed141_DR5_C13G_o1 (dsDNA) DNA 1: GCAGTCAAAGTTGAGGACGAGGTAACGTAAAGCACGGCGATTGACAGCGTAGAATGAAGG DNA 2: CCTTCATTCTACGCTGTCAATCGCCGTGCTTTACGTTACCTCGTCCTCAACTTTGACTGC,-0.07 PBM z-score against 500 random probes,–
NRC3_random_hg19_311_o1 (dsDNA) DNA 1: GCTCACTTATGAAGCTTAGGTTGGCTGGATATGAAAGCGATTGACAGCGTAGAATGAAGG DNA 2: CCTTCATTCTACGCTGTCAATCGCTTTCATATCCAGCCAACCTAAGCTTCATAAGTGAGC,0.15 PBM z-score against 500 random probes,binding signal (PPARa:RXRa): -0.15 PBM z-score against 500 random probes
NRC3_random_hg19_442_o1 (dsDNA) DNA 1: GCTACGGAGTGCTGATCAGTCAGGTTGGAGATGGAAGCGATTGACAGCGTAGAATGAAGG DNA 2: CCTTCATTCTACGCTGTCAATCGCTTCCATCTCCAACCTGACTGATCAGCACTCCGTAGC,-0.9 PBM z-score against 500 random probes,–
NRC3_random_hg19_57_o1 (dsDNA) DNA 1: GCTAGCTGAGACTACATGCCACCATGCCTGGCTAATGCGATTGACAGCGTAGAATGAAGG DNA 2: CCTTCATTCTACGCTGTCAATCGCATTAGCCAGGCATGGTGGCATGTAGTCTCAGCTAGC,-0.61 PBM z-score against 500 random probes,–
NRC3_random_hg19_256_o1 (dsDNA) DNA 1: GCAGGAGAAACCCACGCTGGTGTCATCACAGGTTCAGCGATTGACAGCGTAGAATGAAGG DNA 2: CCTTCATTCTACGCTGTCAATCGCTGAACCTGTGATGACACCAGCGTGGGTTTCTCCTGC,-0.16 PBM z-score against 500 random probes,–
NRC3_wobSeed28_DR1_C20G_o1 (dsDNA) DNA 1: GCCCTACTGGGCCAAAGGTGATTGATTCCAATGCTCGCGATTGACAGCGTAGAATGAAGG DNA 2: CCTTCATTCTACGCTGTCAATCGCGAGCATTGGAATCAATCACCTTTGGCCCAGTAGGGC,0.13 PBM z-score against 500 random probes,–
NRC3_wobSeed66_DR2_C13G_o1 (dsDNA) DNA 1: GCAATACAGGGTGACTAGGCCAGAGTAGGTACGAATGCGATTGACAGCGTAGAATGAAGG DNA 2: CCTTCATTCTACGCTGTCAATCGCATTCGTACCTACTCTGGCCTAGTCACCCTGTATTGC,0.22 PBM z-score against 500 random probes,–
NRC3_wobSeed42_DR1_A6T_o1 (dsDNA) DNA 1: GCTATTCAGGGTCAAAGGCCAGAGTACGAATGTCGAGCGATTGACAGCGTAGAATGAAGG DNA 2: CCTTCATTCTACGCTGTCAATCGCTCGACATTCGTACTCTGGCCTTTGACCCTGAATAGC,7.1 PBM z-score against 500 random probes,binding signal (PPARa:RXRa): 6.67 PBM z-score against 500 random probes
NRC3_random_hg19_129_o1 (dsDNA) DNA 1: GCGAAGTTTAGAAACTTGCCCTAAGTCACCTAACTAGCGATTGACAGCGTAGAATGAAGG DNA 2: CCTTCATTCTACGCTGTCAATCGCTAGTTAGGTGACTTAGGGCAAGTTTCTAAACTTCGC,-0.25 PBM z-score against 500 random probes,–
NRC3_wobSeed77_DR3_G11C_o1 (dsDNA) DNA 1: GCACTTACGGCTCAACGAGGTTATAGCACGCGTATAGCGATTGACAGCGTAGAATGAAGG DNA 2: CCTTCATTCTACGCTGTCAATCGCTATACGCGTGCTATAACCTCGTTGAGCCGTAAGTGC,0.33 PBM z-score against 500 random probes,–
NRC3_random_hg19_497_o1 (dsDNA) DNA 1: GCGGGTTTAGAGATGATTTGCTGTGACAGTGTTGAGGCGATTGACAGCGTAGAATGAAGG DNA 2: CCTTCATTCTACGCTGTCAATCGCCTCAACACTGTCACAGCAAATCATCTCTAAACCCGC,0.38 PBM z-score against 500 random probes,–
NRC3_random_hg19_163_o1 (dsDNA) DNA 1: GCCAGTGAGCCGAGATCATGCCACTGCACTCCAGCCGCGATTGACAGCGTAGAATGAAGG DNA 2: CCTTCATTCTACGCTGTCAATCGCGGCTGGAGTGCAGTGGCATGATCTCGGCTCACTGGC,-0.46 PBM z-score against 500 random probes,–
NRC3_wobSeed120_DR4_T8A_o1 (dsDNA) DNA 1: GCCCGAGAAGGTTACGAGGGGGCATTCAGTGCGAATGCGATTGACAGCGTAGAATGAAGG DNA 2: CCTTCATTCTACGCTGTCAATCGCATTCGCACTGAATGCCCCCTCGTAACCTTCTCGGGC,8.13 PBM z-score against 500 random probes,binding signal (RARg:RXRa): 4.2 PBM z-score against 500 random probes
NRC3_random_hg19_368_o1 (dsDNA) DNA 1: GCTAAGAAACTCAGTCAACATGATATCTATGGCTAAGCGATTGACAGCGTAGAATGAAGG DNA 2: CCTTCATTCTACGCTGTCAATCGCTTAGCCATAGATATCATGTTGACTGAGTTTCTTAGC,0.24 PBM z-score against 500 random probes,–
NRC3_random_hg19_431_o1 (dsDNA) DNA 1: GCAGCCATATGCAAATGAGTACATCCTGTGTGATTCGCGATTGACAGCGTAGAATGAAGG DNA 2: CCTTCATTCTACGCTGTCAATCGCGAATCACACAGGATGTACTCATTTGCATATGGCTGC,-0.4 PBM z-score against 500 random probes,–
NRC3_random_hg19_145_o1 (dsDNA) DNA 1: GCGCCCAGTAGTTTGAGACCAGCCTGGACAACATGGGCGATTGACAGCGTAGAATGAAGG DNA 2: CCTTCATTCTACGCTGTCAATCGCCCATGTTGTCCAGGCTGGTCTCAAACTACTGGGCGC,-0.81 PBM z-score against 500 random probes,–
NRC3_wobSeed100_DR4_T22C_o1 (dsDNA) DNA 1: GCCCTACTGGGCCACGAAAGGCCATTGATTCAGTGAGCGATTGACAGCGTAGAATGAAGG DNA 2: CCTTCATTCTACGCTGTCAATCGCTCACTGAATCAATGGCCTTTCGTGGCCCAGTAGGGC,-0.05 PBM z-score against 500 random probes,–
NRC3_random_hg19_430_o1 (dsDNA) DNA 1: GCGAAGGACCTTTAGATCCTGAGACAGAACTTAGGCGCGATTGACAGCGTAGAATGAAGG DNA 2: CCTTCATTCTACGCTGTCAATCGCGCCTAAGTTCTGTCTCAGGATCTAAAGGTCCTTCGC,-0.59 PBM z-score against 500 random probes,–
NRC3_wobSeed117_DR4_G10C_o1 (dsDNA) DNA 1: GCCGTCAAACTTCAACTAAGGTAACGTAAAGCACGCGCGATTGACAGCGTAGAATGAAGG DNA 2: CCTTCATTCTACGCTGTCAATCGCGCGTGCTTTACGTTACCTTAGTTGAAGTTTGACGGC,0.31 PBM z-score against 500 random probes,–
NRC3_random_hg19_104_o1 (dsDNA) DNA 1: GCTGTAATCACGGTGTGTGAACTACTCATATCGAGTGCGATTGACAGCGTAGAATGAAGG DNA 2: CCTTCATTCTACGCTGTCAATCGCACTCGATATGAGTAGTTCACACACCGTGATTACAGC,-0.03 PBM z-score against 500 random probes,–
NRC3_wobSeed40_DR1_C13T_o1 (dsDNA) DNA 1: GCTAGCCTAGGTTATGGGCCAGTATACCACGCGAACGCGATTGACAGCGTAGAATGAAGG DNA 2: CCTTCATTCTACGCTGTCAATCGCGTTCGCGTGGTATACTGGCCCATAACCTAGGCTAGC,0.05 PBM z-score against 500 random probes,–
NRC3_random_hg19_203_o1 (dsDNA) DNA 1: GCGATGTAACAATGCAGGGTGGTCTTGGTCTTTGGCGCGATTGACAGCGTAGAATGAAGG DNA 2: CCTTCATTCTACGCTGTCAATCGCGCCAAAGACCAAGACCACCCTGCATTGTTACATCGC,-0.49 PBM z-score against 500 random probes,–
NRC3_wobSeed136_DR5_A14G_o1 (dsDNA) DNA 1: GCTAGCCTAGGTCGTTCAGGGGCCAGTATAGAAAGCGCGATTGACAGCGTAGAATGAAGG DNA 2: CCTTCATTCTACGCTGTCAATCGCGCTTTCTATACTGGCCCCTGAACGACCTAGGCTAGC,0.19 PBM z-score against 500 random probes,–
NRC3_wobSeed34_DR1_G14T_o1 (dsDNA) DNA 1: GCATCGAAAGGTCTAAGGTGAGTATACCCACCCGAAGCGATTGACAGCGTAGAATGAAGG DNA 2: CCTTCATTCTACGCTGTCAATCGCTTCGGGTGGGTATACTCACCTTAGACCTTTCGATGC,0.34 PBM z-score against 500 random probes,–
NRC3_wobSeed34_DR1_G14C_o1 (dsDNA) DNA 1: GCATCGAAAGGTCCAAGGTGAGTATACCCACCCGAAGCGATTGACAGCGTAGAATGAAGG DNA 2: CCTTCATTCTACGCTGTCAATCGCTTCGGGTGGGTATACTCACCTTGGACCTTTCGATGC,0.27 PBM z-score against 500 random probes,–
NRC3_random_hg19_425_o1 (dsDNA) DNA 1: GCCTGTTAGGTTGATTCTATGTCTTGGCTATTGTGTGCGATTGACAGCGTAGAATGAAGG DNA 2: CCTTCATTCTACGCTGTCAATCGCACACAATAGCCAAGACATAGAATCAACCTAACAGGC,0.31 PBM z-score against 500 random probes,binding signal (FXR:RXRa): 0.23 PBM z-score against 500 random probes
NRC3_random_hg19_94_o1 (dsDNA) DNA 1: GCACTATCTTGTGTCTCATCTGAGACATAGATGGATGCGATTGACAGCGTAGAATGAAGG DNA 2: CCTTCATTCTACGCTGTCAATCGCATCCATCTATGTCTCAGATGAGACACAAGATAGTGC,-0.69 PBM z-score against 500 random probes,binding signal (PPARa:RXRa): -0.62 PBM z-score against 500 random probes
